The target in assay [1] is soluble KDR Ig4-7 domain (human) (UniProt P35968). The assay can be described thus: ELISA, KDR Ig4-7 coat (1:1 diln.), antibody 0.01 ug/mL. (In general: An ELISA detects its analyte on a solid surface through an enzyme-linked reagent.)
Assay [2] has the same target. The assay can be described thus: ELISA, KDR Ig4-7 coat (1:1 diln.), antibody 0.1 ug/mL.
Assay [3] concerns the target whole KDR-ECD (Cat. # 676490, Calbiochem) (human) (UniProt P35968). As to the kind of experiment: ELISA, KDR-ECD coat 5 ug/mL, antibody 1 ug/mL.
The target in assay [4] is soluble KDR Ig4-7 domain (human) (UniProt P35968). The assay can be described thus: ELISA, KDR Ig4-7 coat (1:1 diln.), antibody 1 ug/mL.
The target of assay [5] is whole KDR-ECD (Cat. # 676490, Calbiochem) (human) (UniProt P35968). The assay can be described thus: ELISA, KDR-ECD coat 5 ug/mL, antibody 0.01 ug/mL.
whole KDR-ECD (Cat. # 676490, Calbiochem) (human), sequence (P35968 20-764): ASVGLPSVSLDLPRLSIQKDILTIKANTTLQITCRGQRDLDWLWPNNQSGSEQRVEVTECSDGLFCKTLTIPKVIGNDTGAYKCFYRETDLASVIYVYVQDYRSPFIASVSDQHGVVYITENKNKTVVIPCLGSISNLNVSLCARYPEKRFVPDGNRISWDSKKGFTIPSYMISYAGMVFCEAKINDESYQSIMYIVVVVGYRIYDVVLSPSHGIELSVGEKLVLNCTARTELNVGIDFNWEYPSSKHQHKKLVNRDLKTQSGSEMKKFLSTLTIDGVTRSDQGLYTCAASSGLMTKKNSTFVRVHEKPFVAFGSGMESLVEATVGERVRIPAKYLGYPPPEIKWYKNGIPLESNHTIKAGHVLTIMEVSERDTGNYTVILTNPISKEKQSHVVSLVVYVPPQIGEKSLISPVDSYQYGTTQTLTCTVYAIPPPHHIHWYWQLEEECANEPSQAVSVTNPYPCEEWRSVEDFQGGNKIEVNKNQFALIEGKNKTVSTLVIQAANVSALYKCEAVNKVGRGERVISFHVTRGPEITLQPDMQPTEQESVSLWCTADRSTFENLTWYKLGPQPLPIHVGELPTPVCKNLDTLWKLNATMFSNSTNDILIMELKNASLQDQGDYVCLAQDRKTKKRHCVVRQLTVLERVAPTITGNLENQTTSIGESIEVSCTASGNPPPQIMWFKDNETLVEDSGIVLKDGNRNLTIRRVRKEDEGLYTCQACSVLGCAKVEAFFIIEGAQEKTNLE
Assay [6] shares this target. As to the kind of experiment: ELISA, KDR-ECD coat 5 ug/mL, antibody 0.1 ug/mL.
In assay [7] the target is KDR (human) (UniProt P35968). The assay can be described thus: cell-based or functional assay.
KDR (human), sequence (P35968 20-1356): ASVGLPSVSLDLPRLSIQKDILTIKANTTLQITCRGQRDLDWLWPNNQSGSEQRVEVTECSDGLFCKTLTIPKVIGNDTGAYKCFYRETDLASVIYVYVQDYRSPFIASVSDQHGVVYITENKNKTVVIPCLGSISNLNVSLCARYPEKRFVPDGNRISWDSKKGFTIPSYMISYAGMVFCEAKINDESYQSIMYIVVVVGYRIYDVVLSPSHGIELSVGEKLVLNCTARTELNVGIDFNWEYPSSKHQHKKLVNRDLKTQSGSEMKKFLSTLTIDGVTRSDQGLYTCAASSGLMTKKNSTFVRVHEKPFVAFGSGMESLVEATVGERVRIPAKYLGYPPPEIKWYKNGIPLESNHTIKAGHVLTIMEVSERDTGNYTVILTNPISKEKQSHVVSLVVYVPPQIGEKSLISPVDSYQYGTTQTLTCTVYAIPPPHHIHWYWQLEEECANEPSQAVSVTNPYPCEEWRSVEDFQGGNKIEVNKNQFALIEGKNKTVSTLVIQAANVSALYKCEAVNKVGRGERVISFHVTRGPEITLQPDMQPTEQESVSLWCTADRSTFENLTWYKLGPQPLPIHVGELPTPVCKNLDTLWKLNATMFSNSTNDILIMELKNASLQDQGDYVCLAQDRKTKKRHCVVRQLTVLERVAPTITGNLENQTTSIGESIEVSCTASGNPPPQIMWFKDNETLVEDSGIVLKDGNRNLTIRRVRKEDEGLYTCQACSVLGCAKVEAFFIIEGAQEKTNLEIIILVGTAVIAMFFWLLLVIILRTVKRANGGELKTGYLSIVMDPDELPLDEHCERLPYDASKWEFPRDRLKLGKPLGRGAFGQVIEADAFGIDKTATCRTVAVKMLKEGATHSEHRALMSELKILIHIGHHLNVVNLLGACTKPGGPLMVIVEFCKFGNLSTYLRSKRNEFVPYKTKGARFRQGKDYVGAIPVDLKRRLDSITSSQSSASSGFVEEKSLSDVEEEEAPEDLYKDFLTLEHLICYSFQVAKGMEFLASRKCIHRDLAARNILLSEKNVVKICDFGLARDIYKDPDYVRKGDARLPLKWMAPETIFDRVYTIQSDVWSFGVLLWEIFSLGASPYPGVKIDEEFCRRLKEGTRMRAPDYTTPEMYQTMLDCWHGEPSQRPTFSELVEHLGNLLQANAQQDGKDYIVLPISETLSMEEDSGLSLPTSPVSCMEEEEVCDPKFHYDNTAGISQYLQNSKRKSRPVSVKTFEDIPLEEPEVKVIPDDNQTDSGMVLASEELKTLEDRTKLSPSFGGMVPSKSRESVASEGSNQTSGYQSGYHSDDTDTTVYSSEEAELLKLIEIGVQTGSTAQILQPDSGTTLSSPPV
In assay [8] the target is human KDR (VEGFR2) on cells (human) (UniProt P35968). The assay can be described thus: FACS on HUVEC, control at 2 ug/mL.
human KDR (VEGFR2) on cells (human), sequence (P35968 20-1356): as above

soluble KDR Ig4-7 domain (human), sequence (P35968 328-764): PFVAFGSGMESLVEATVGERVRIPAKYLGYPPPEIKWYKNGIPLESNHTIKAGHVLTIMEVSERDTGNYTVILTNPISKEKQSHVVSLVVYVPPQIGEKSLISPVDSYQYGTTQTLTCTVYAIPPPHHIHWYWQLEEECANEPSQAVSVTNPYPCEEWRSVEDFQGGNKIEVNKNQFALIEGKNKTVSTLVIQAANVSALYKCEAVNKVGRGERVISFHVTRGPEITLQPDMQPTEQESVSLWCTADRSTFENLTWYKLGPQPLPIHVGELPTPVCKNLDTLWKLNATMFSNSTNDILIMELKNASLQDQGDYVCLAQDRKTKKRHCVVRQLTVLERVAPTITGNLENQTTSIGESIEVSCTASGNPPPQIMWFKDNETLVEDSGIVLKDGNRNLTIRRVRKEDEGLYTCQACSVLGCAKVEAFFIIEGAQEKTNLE

Regarding “IgG1 (Control) (Sigma-Aldrich, Cat. #15154) (antibody)”, the ELISA reading in assay [1] turned out to be 0.079; in assay [2], 0.097; in assay [3], 0.121; in assay [4], 0.139; in assay [5] it was 0.082; in assay [6], 0.087.

In assay [7], IgG2 (antibody) registered a % of Max VEGF KDR pTyr Activity (at 133 nM antibody concentration), Average of 9%; a % of Max VEGF KDR pTyr Activity (at 133 nM antibody concentration), N = 1 of 6%; a % of Max VEGF KDR pTyr Activity (at 133 nM antibody concentration), N = 2 of 12%.

For “IgG4 (Control) (Sigma-Aldrich, Cat. #14639) (antibody)”, the ELISA reading in assay [1] was 0.075; in assay [2], 0.078; in assay [3], 0.106; in assay [4], 0.181; in assay [5], 0.077; in assay [6] it was 0.078.

Turning to IgG4 (antibody), in assay [7], the % of Max VEGF KDR pTyr Activity (at 133 nM antibody concentration), Average is 8%; the % of Max VEGF KDR pTyr Activity (at 133 nM antibody concentration), N = 1 was 6%; the % of Max VEGF KDR pTyr Activity (at 133 nM antibody concentration), N = 2 came out at 10%.

In turn, goat isotype control (antibody) had an FACS Geometric Mean in assay [8] of 3.28.

The record behind these values is patent US20100260765A1.
